Tests used:
HeLa Kyoto [1] = assay: solubility in G1/S (NP-40 vs SDS abundance) (log2 ratio); higher = more soluble; settings: cell cycle stage: G1/S
HeLa Kyoto [2] = assay: melting temperature (median over replicates), in situ; higher = more thermally stable
HeLa Kyoto [3] = assay: solubility change mitosis vs G1/S (difference of NP-40 vs SDS log2 ratios) (log2 ratio difference); higher = more soluble in mitosis
HeLa Kyoto [4] = assay: thermal stability score vs G1/S (z-score of summed log2 fold changes over temperatures); higher = more thermally stable than in G1/S
[5] = cell cycle stage: early G1 (4.5 h after nocodazole release)
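For melting temperature (median over replicates), in situ in this document: HeLa Kyoto cells synchronized by double thymidine or nocodazole block, proteins quantified by TMT10plex mass spectrometry, three independent biological replicates.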
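For solubility change mitosis vs G1/S (difference of NP-40 vs SDS log2 ratios) in this document: synchronized HeLa Kyoto cells (double thymidine block for G1/S, nocodazole release for mitosis), protein amounts in NP-40 versus SDS lysates quantified by mass spectrometry, three biological replicates.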
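For solubility in G1/S (NP-40 vs SDS abundance) in this document: HeLa Kyoto cells arrested at G1/S by double thymidine block, proteins quantified by TMT10plex mass spectrometry in mild NP-40 versus SDS extracts, three biological replicates.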
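For thermal stability score vs G1/S (z-score of summed log2 fold changes over temperatures) in this document: synchronized HeLa Kyoto cells, proteins quantified by TMT10plex mass spectrometry, three biological replicates, mitosis taken 0.5 h after nocodazole release, G1/S directly after double thymidine block.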

| Substance | solubility in G1/S (log2) (HeLa Kyoto [1]) | melting temperature (HeLa Kyoto [2]; cell cycle stage: G1/S) | melting temperature (HeLa Kyoto [2]; cell cycle stage: mitosis) | solubility change mitosis (log2) (HeLa Kyoto [3]) | thermal stability score (HeLa Kyoto [4]; [5]) | thermal stability score (HeLa Kyoto [4]; cell cycle stage: mitosis) |
| --- | --- | --- | --- | --- | --- | --- |
| MDNLSDTLKKLKITAVDKTEDSLEGCLDCLLQALAQNNTETSEKIQASGILQLFASLLTPQSSCKAKVANIIAEVAKNEFMRIPCVDAGLISPLVQLLNSKDQEVLLQTGRALGNICYDSHEGRSAVDQAGGAQIVIDHLRSLCSITDPANEKLLTVFCGMLMNYSNENDSLQAQLINMGVIPTLVKLLGIHCQNAALTEMCLVAFGNLAELESSKEQFASTNIAEELVKLFKKQIEHDKREMIFEVLAPLAENDAIKLQLVEAGLVECLLEIVQQKVDSDKEDDITELKTGSDLMVLLLLGDESMQKLFEGGKGSVFQRVLSWIPSNNHQLQLAGALAIANFARNDANCIHMVDNGIVEKLMDLLDRHVEDGNVTVQHAALSALRNLAIPVINKAKMLSAGVTEAVLKFLKSEMPPVQFKLLGTLRMLIDAQAEAAEQLGKNVKLVERLVEWCEAKDHAGVMGESNRLLSALIRHSKSKDVIKTIVQSGGIKHLVTMATSEHVIMQNEALVALALIAALELGTAEKDLESAKLVQILHRLLADERSAPEIKYNSMVLICALMGSECLHKEVQDLAFLDVVSKLRSHENKSVAQQASLTEQRLTVES [RAP1GDS1] | 0.111 | 50.2 °C | 49.8 °C | -0.0374 | 1.29 | 1.87 |
| MWRSCLRLRDGGRRLLNRPAGGPSASMSPGPTIPSPARAYAPPTERKRFYQNVSITQGEGGFEINLDHRKLKTPQAKLFTVPSEALAIAVATEWDSQQDTIKYYTMHLTTLCNTSLDNPTQRNKDQLIRAAVKFLDTDTICYRVEEPETLVELQRNEWDPIIEWAEKRYGVEISSSTSIMGPSIPAKTREVLVSHLASYNTWALQGIEFVAAQLKSMVLTLGLIDLRLTVEQAVLLSRLEEEYQIQKWGNIEWAHDYELQELRARTAAGTLFIHLCSESTTVKHKLLKE [ATPAF2] | 0.104 | 56.8 °C | 56 °C | -0.295 | -0.051 | -1.43 |
| MALLALLLVVALPRVWTDANLTARQRDPEDSQRTDEGDNRVWCHVCERENTFECQNPRRCKWTEPYCVIAAVKIFPRFFMVAKQCSAGCAAMERPKPEEKRFLLEEPMPFFYLKCCKIRYCNLEGPPINSSVFKEYAGSMGESCGGLWLAILLLLASIAAGLSLS [LY6K] | 0.0392 | 52.6 °C | 52.9 °C | -0.107 | 2.6 | 2.04 |
| MWRVKKLSLSLSPSPQTGKPSMRTPLRELTLQPGALTNSGKRSPACSSLTPSLCKLGLQEGSNNSSPVDFVNNKRTDLSSEHFSHSSKWLETCQHESDEQPLDPIPQISSTPKTSEEAVDPLGNYMVKTIVLVPSPLGQQQDMIFEARLDTMAETNSISLNGPLRTDDLVREEVAPCMGDRFSEVAAVSEKPIFQESPSHLLEESPPNPCSEQLHCSKESLSSRTEAVREDLVPSESNAFLPSSVLWLSPSTALAADFRVNHVDPEEEIVEHGAMEEREMRFPTHPKESETEDQALVSSVEDILSTCLTPNLVEMESQEAPGPAVEDVGRILGSDTESWMSPLAWLEKGVNTSVMLENLRQSLSLPSMLRDAAIGTTPFSTCSVGTWFTPSAPQEKSTNTSQTGLVGTKHSTSETEQLLCGRPPDLTALSRHDLEDNLLSSLVILEVLSRQLRDWKSQLAVPHPETQDSSTQTDTSHSGITNKLQHLKESHEMGQALQQARNVMQSWVLISKELISLLHLSLLHLEEDKTTVSQESRRAETLVCCCFDLLKKLRAKLQSLKAEREEARHREEMALRGKDAAEIVLEAFCAHASQRISQLEQDLASMREFRGLLKDAQTQLVGLHAKQEELVQQTVSLTSTLQQDWRSMQLDYTTWTALLSRSRQLTEKLTVKSQQALQERDVAIEEKQEVSRVLEQVSAQLEECKGQTEQLELENSRLATDLRAQLQILANMDSQLKELQSQHTHCAQDLAMKDELLCQLTQSNEEQAAQWQKEEMALKHMQAELQQQQAVLAKEVRDLKETLEFADQENQVAHLELGQVECQLKTTLEVLRERSLQCENLKDTVENLTAKLASTIADNQEQDLEKTRQYSQKLGLLTEQLQSLTLFLQTKLKEKTEQETLLLSTACPPTQEHPLPNDRTFLGSILTAVADEEPESTPVPLLGSDKSAFTRVASMVSLQPAETPGMEESLAEMSIMTTELQSLCSLLQESKEEAIRTLQRKICELQARLQAQEEQHQEVQKAKEADIEKLNQALCLRYKNEKELQEVIQQQNEKILEQIDKSGELISLREEVTHLTRSLRRAETETKVLQEALAGQLDSNCQPMATNWIQEKVWLSQEVDKLRVMFLEMKNEKEKLMIKFQSHRNILEENLRRSDKELEKLDDIVQHIYKTLLSIPEVVRGCKELQGLLEFLS [SPAG5] | 0.306 | 48.2 °C | 48.4 °C | -0.134 | 0.87 | 2.82 |
| MAANMYRVGDYVYFENSSSNPYLIRRIEELNKTANGNVEAKVVCFYRRRDISSTLIALADKHATLSVCYKAGPGADNGEEGEIEEEMENPEMVDLPEKLKHQLRHRELFLSRQLESLPATHIRGKCSVTLLNETESLKSYLEREDFFFYSLVYDPQQKTLLADKGEIRVGNRYQADITDLLKEGEEDGRDQSRLETQVWEAHNPLTDKQIDQFLVVARSVGTFARALDCSSSVRQPSLHMSAAAASRDITLFHAMDTLHKNIYDISKAISALVPQGGPVLCRDEMEEWSASEANLFEEALEKYGKDFTDIQQDFLPWKSLTSIIEYYYMWKTTDRYVQQKRLKAAEAESKLKQVYIPNYNKPNPNQISVNNVKAGVVNGTGAPGQSPGAGRACESCYTTQSYQWYSWGPPNMQCRLCASCWTYWKKYGGLKMPTRLDGERPGPNRSNMSPHGLPARSSGSPKFAMKTRQAFYLHTTKLTRIARRLCREILRPWHAARHPYLPINSAAIKAECTARLPEASQSPLVLKQAVRKPLEAVLRYLETHPRPPKPDPVKSVSSVLSSLTPAKVAPVINNGSPTILGKRSYEQHNGVDGNMKKRLLMPSRGLANHGQARHMGPSRNLLLNGKSYPTKVRLIRGGSLPPVKRRRMNWIDAPDDVFYMATEETRKIRKLLSSSETKRAARRPYKPIALRQSQALPPRPPPPAPVNDEPIVIED [MTA1] | -0.0863 | 49.1 °C | 50.3 °C | -0.00553 | 1.08 | 2.79 |
| LSM14A | 0.131 | 51.8 °C | 51.6 °C | -0.186 | -0.955 | -1.78 |
| MAAQCVRLARRSLPALALSLRPSPRLLCTATKQKNSGQNLEEDMGQSEQKADPPATEKTLLEEKVKLEEQLKETVEKYKRALADTENLRQRSQKLVEEAKLYGIQAFCKDLLEVADVLEKATQCVPKEEIKDDNPHLKNLYEGLVMTEVQIQKVFTKHGLLKLNPVGAKFDPYEHEALFHTPVEGKEPGTVALVSKVGYKLHGRTLRPALVGVVKEA [GRPEL1] | 0.661 | 51.2 °C | 51 °C | 0.707 | -2.01 | -2.29 |
| MAGTRWVLGALLRGCGCNCSSCRRTGAACLPFYSAAGSIPSGVSGRRRLLLLLGAAAAAASQTRGLQTGPVPPGRLAGPPAVATSAAAAAAASYSALRASLLPQSLAAAAAVPTRSYSQESKTTYLEDLPPPPEYELAPSKLEEEVDDVFLIRAQGLPWSCTMEDVLNFFSDCRIRNGENGIHFLLNRDGKRRGDALIEMESEQDVQKALEKHRMYMGQRYVEVYEINNEDVDALMKSLQVKSSPVVNDGVVRLRGLPYSCNEKDIVDFFAGLNIVDITFVMDYRGRRKTGEAYVQFEEPEMANQALLKHREEIGNRYIEIFPSRRNEVRTHVGSYKGKKIASFPTAKYITEPEMVFEEHEVNEDIQPMTAFESEKEIELPKEVPEKLPEAADFGTTSSLHFVHMRGLPFQANAQDIINFFAPLKPVRITMEYSSSGKATGEADVHFETHEDAVAAMLKDRSHVHHRYIELFLNSCPKGK [GRSF1] | 0.345 | 47.9 °C | 49.1 °C | -0.0298 | 0.523 | 3.06 |

Source: the supplement of paper PMC5998384
